Data on 4 compounds can be found in patent publication US20110130457A1, “Wax-Based Emulsion for the Treatment of Dry Eye Conditions” (UNIVERSITY OF LOUISVILLE RESEARCH FOUNDATION, INC., priority 2008, published 2011).

For one data set, the target named is T1, β-lactoglobulin (Bos taurus, UniProt P02754).
T1 sequence (P02754 17-178): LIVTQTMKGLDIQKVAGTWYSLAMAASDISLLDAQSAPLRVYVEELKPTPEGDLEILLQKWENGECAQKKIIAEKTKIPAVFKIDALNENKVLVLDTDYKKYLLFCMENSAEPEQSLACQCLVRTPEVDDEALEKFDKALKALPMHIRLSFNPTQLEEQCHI
The data set is described as follows: Wax-lactoglobulin binding by intrinsic tryptophan fluorescence intensity and anisotropy. From the text:
Changes in protein concentration alone are unlikely to affect the rate of evaporation of tears. […] (See Pandit J. C., Nagyova B., Bron A. J., et al, Physical properties of stimulated and unstimulated tears. Exp Eye Res. 1999; 68:247-253.) In this embodiment of the present invention, wax interacted with lactoglobulin. Wax-lactoglobulin binding was quantified by measuring changes in the intrinsic fluorescence intensity of tryptophan. Tryptophan fluorescence is sensitive to local changes in electrostatic fields. Therefore, variations in the local environment/polarity of tryptophan leads to changes in its fluorescence properties as described by Vivian and Callis. Vivian J. T., Callis P. R., Mechanisms of tryptophan fluorescence shifts in proteins, Biophys. J. 2001; 80:2093-2109.) Substrate binding and protein structural changes are commonly measured by observing changes in tryptophan fluorescence intensity, wavelength maximum, band shape, anisotropy, fluorescence lifetimes, and energy transfer.
A wax emulsion that is stable for at least 4 weeks was prepared as described previously by the inventors. […] A quantified amount of wax (0.156 to 1.25 μL/mL) was mixed with 1 mg/mL lactoglobulin in phosphate buffered saline and equilibrated for 12 hours at 34° C. under an atmosphere of argon. […] Emission spectra were measured from 300 to 400 nm with an excitation wavelength of 270 nm. […]

The nature of data set [1]: Evaporation rates measured in vitro (gravimetric). The class given is physicochemical. To be noted: for Influence on the rate of evaporation: concentrations of 50 to 100 mg/mL, at 25 or 34° C. As for the experimental part: Samples (0.750 mL) for evaporation rate measurements were placed into a plastic container 0.8 cm deep and 1.500 cm inside diameter. Temperature and relative humidity were recorded at the start and end of each experiment. Samples were weighed every minute for 10 minutes using a Mettler-Toledo AT261 analytical balance (Columbus, Ohio). The balance was calibrated and certified by a Mettler technician prior to use. The weights of as many as 7 samples were measured sequentially, i.e., after measuring the weights of sample 1 for ten minutes, the weights of sample 2 were measured for ten minutes, followed by the next sample. The weights of four 10 minute weighing sequences were plotted versus time and the rate of evaporation was calculated from the slope of the data in the plots that were fitted using least squares linear regression analysis. The rate of evaporation at 34° C. was measured using four, 3-minute weighing sequences instead of ten.
The rate of evaporation with 20 standard cubic feet per minute (SCFM) of dry air flowing over the sample at 24° C. was measured. Air was completely dried using a Keaser desiccant dry, model KLDW-10S (Columbus, Ohio) attached to a Purimetrics Compressor, model 750-2 (Edina, Minn.) and a 80 gallon air receiver tank. Complete removal of water vapor from the air was confirmed using an infrared spectrometer. The sample was placed under a flow of dry air for 1 minute and removed from the dry air for two minutes and weighed in a Mettler-Toledo analytical balance. This cycle was repeated ten times. The rate of evaporation in dry air was calculated from the total rate of evaporation minus the contribution of the evaporation in the room air. Evaporation rate was expressed as μm/min, the rate of thickness lost at the surface per minute. Changes in the thickness of the tear film (˜5 μm) due to evaporation can be estimated readily by expressing the evaporation rate in μm/min.

Where [2] appears, read: 50 mg/mL, 24.8° C., relative humidity 40.6%.
The mark [3] stands for this setting: 100 mg/mL, 24.8° C., relative humidity 40.6%.

For `CCCCCCCC/C=C\CCCCCCCC(=O)OCCCCCCCCCCCCCCCC` [palmityloleate wax, palmityloleate], the “Fluorescence intensity of the tryptophan residues in lactoglobulin” value at β-lactoglobulin (as little as 20 nmoles (~0.1 μg) wax added to 1 mg β-lactoglobulin in 1 ml phosphate buffered saline) is “caused a decrease in the fluorescence intensity”. Further, the “Tryptophan anisotropy of lactoglobulin” value on β-lactoglobulin (with the addition of wax, n=6, 0.138±0.009 with no wax, p=0.04, SEM) is on record as 0.115±0.004.

Lysozyme: the “Rate of Evaporation” value in data set [1] (setting [2]) and in data set [1] (setting [3]) was 3.0 μm/min each time. The “Influence on the rate of evaporation” value in data set [1] is reported as “did not significantly influence the rate of evaporation”.

Take Mucin: the “Rate of Evaporation” value in data set [1] (setting [2]) is 2.9 μm/min; in data set [1] (setting [3]) it was 3.0 μm/min. The “Influence on the rate of evaporation” value in data set [1] was “did not significantly influence the rate of evaporation”.

Take “β-Lactoglobulin: model tear protein, used as a model for lipocalin”: the “Rate of Evaporation” value came out at 3.08 μm/min in data set [1] (setting [2]); 3.12 μm/min in data set [1] (setting [3]); 9.1 μm/min in data set [1] (100 mg/mL, 34° C.). Further, in data set [1], the “Influence on the rate of evaporation” value is “did not significantly influence the rate of evaporation”.
